# According to publication PMC11969024, “Development of chemokine network inhibitors using combinatorial saturation mutagenesis” (Communications Biology, 2025):
# B1: peptide HD2 (from tick evasin EVA4) / CCL8 (biotinylated, synthetic) (parent)
# chain 1: EEDDYTAYAPLTCYFT
# chain 2: QPDSVSIPITCCFNVINRKIPIQRLESYTRITNIQCPKEAVIFKTKRGKEVCADPKERWVRDSMKHLDQIFQNLKP
# B2: peptide HD2 (from tick evasin EVA4) / CCL17 (biotinylated, synthetic) (parent)
# chain 1: EEDDYTAYAPLTCYFT
# chain 2: ARGTNVGRECCLEYFKGAIPLRKLKTWYQTSEDCSRDAIVFVTVQGRAICSDPNNKRVKNAVKYLQSLERS
# B3: peptide HD2 (from tick evasin EVA4) / CCL19 (biotinylated, synthetic) (parent)
# chain 1: EEDDYTAYAPLTCYFT
# chain 2: GTNDAEDCCLSVTQKPIPGYIVRNFHYLLIKDGCRVPAVVFTTLRGRQLCAPPDQPWVERIIQRLQRTSAKMKRRSS
# B4: peptide HD2 (from tick evasin EVA4) / CCL18 (biotinylated, synthetic) (parent)
# chain 1: EEDDYTAYAPLTCYFT
# chain 2: AQVGTNKELCCLVYTSWQIPQKFIVDYSETSPQCPKPGVILLTKRGRQICADPNKKWVQKYISDLKLNA
# B5: peptide HD2 (from tick evasin EVA4) / CCL1 (biotinylated, synthetic) (parent)
# chain 1: EEDDYTAYAPLTCYFT
# chain 2: KSMQVPFSRCCFSFAEQEIPLRAILCYRNTSSICSNEGLIFKLKRGKEACALDTVGWVQRHRKMLRHCPSKRK
# Variants of: B1
# Conditions: with CCL8 (biotinylated, synthetic); scale: log2
row,Variant,enrichment
1,chain 1 C13P,-9.12
2,chain 1 L11P,-7.62
3,chain 1 E2C,-9.53
4,chain 1 Y8E,-5.7
5,chain 1 Y8Q,-5.88
6,chain 1 Y8P,-7.38
7,chain 1 Y8K,-5.59
8,chain 1 Y8G,-8.23
9,chain 1 A9P,-7.32
10,chain 1 P10I,-7.96
11,chain 1 P10H,-7.47
12,chain 1 P10M,-8.02
13,chain 1 P10F,-8.93
14,chain 1 P10V,-9.9
15,chain 1 P10K,-6.48
16,chain 1 Y5R,-6.57
17,chain 1 Y5Q,-4.88
18,chain 1 Y5K,-5.12

# Variants of: B2
# Conditions: with CCL17 (biotinylated, synthetic); scale: log2
row,Variant,enrichment
1,chain 1 A7C,-9.94
2,chain 1 C13W,-9.75
3,chain 1 C13H,-8.75
4,chain 1 C13G,-10.5
5,chain 1 C13K,-9.23
6,chain 1 C13D,-9.26
7,chain 1 C13A,-10.7
8,chain 1 Y8G,-8.81
9,chain 1 Y8Q,-6.46
10,chain 1 Y8E,-6.29
11,chain 1 Y8M,-8.59
12,chain 1 Y8R,-8.29
13,chain 1 Y8T,-8.59
14,chain 1 Y8K,-6.17
15,chain 1 Y8D,-7.65
16,chain 1 Y8I,-9.49
17,chain 1 Y8P,-7.97
18,chain 1 Y8A,-8.88
19,chain 1 Y8N,-8.23
20,chain 1 E1C,-9.85
21,chain 1 Y5E,-3.59
22,chain 1 Y5Q,-5.46
23,chain 1 Y5K,-5.7
24,chain 1 Y5R,-7.15

row,Variant,enrichment
1,chain 1 Y5T,-7.77
2,chain 1 Y5N,-7.81
3,chain 1 P10C,-9.82
4,chain 1 P10N,-8.12
5,chain 1 P10V,-10.5
6,chain 1 P10R,-9.18
7,chain 1 P10I,-8.54
8,chain 1 P10M,-8.6
9,chain 1 P10K,-7.07
10,chain 1 P10S,-9.3
11,chain 1 P10H,-8.06
12,chain 1 D4C,-9.34
13,chain 1 D3C,-10
14,chain 1 T6C,-11.2
15,chain 1 Y14R,-10.2
16,chain 1 Y14E,-8.87
17,chain 1 Y14D,-7.63
18,chain 1 Y14N,-7
19,chain 1 A9I,-10.1
20,chain 1 A9K,-6.73
21,chain 1 A9P,-7.91
22,chain 1 A9C,-10.2
23,chain 1 A9D,-8.33

# Variants of: B3
# Conditions: with CCL19 (biotinylated, synthetic); scale: log2
row,Variant,enrichment
1,chain 1 D3A,-6
2,chain 1 D3H,-5.94
3,chain 1 D3R,-6.43
4,chain 1 D3Q,-3.96
5,chain 1 D3K,-4.33
6,chain 1 D3T,-6.58
7,chain 1 D3I,-8.83
8,chain 1 D3M,-6.81
9,chain 1 D3C,-8.87
10,chain 1 A9H,-7.18
11,chain 1 A9G,-7.67
12,chain 1 A9Q,-6.19
13,chain 1 A9D,-7.2
14,chain 1 A9K,-5.6
15,chain 1 D4R,-6.06
16,chain 1 D4G,-5.19
17,chain 1 D4E,-4.92
18,chain 1 D4C,-8.21
19,chain 1 D4P,-6.04
20,chain 1 D4T,-6.85

row,Variant,enrichment
1,chain 1 D4N,-6.94
2,chain 1 D4K,-5.85
3,chain 1 D4A,-7.05
4,chain 1 D4H,-6.74
5,chain 1 P10I,-7.41
6,chain 1 P10H,-6.93
7,chain 1 P10N,-6.99
8,chain 1 P10Q,-5.36
9,chain 1 P10D,-7.38
10,chain 1 P10E,-6.87
11,chain 1 P10C,-8.69
12,chain 1 P10A,-7.68
13,chain 1 P10K,-5.94
14,chain 1 E2Q,-3.87
15,chain 1 E2H,-6.61
16,chain 1 E2P,-6.02
17,chain 1 E2K,-4.12
18,chain 1 F15I,-5.23
19,chain 1 F15N,-5.7
20,chain 1 C13K,-8.09

row,Variant,enrichment
1,chain 1 C13H,-7.62
2,chain 1 C13G,-9.4
3,chain 1 C13Q,-8.35
4,chain 1 C13R,-9.52
5,chain 1 C13M,-8.49
6,chain 1 C13V,-10.3
7,chain 1 C13Y,-7.72
8,chain 1 C13T,-8.2
9,chain 1 C13E,-8.9
10,chain 1 C13A,-9.6
11,chain 1 C13W,-8.62
12,chain 1 C13F,-7.6
13,chain 1 C13I,-7.15
14,chain 1 A7C,-8.81
15,chain 1 E1Q,-3.57
16,chain 1 E1C,-8.72
17,chain 1 L11N,-7.42
18,chain 1 L11G,-9.22
19,chain 1 L11E,-7.14
20,chain 1 L11D,-8.06

# Variants of: B4
# Conditions: with CCL18 (biotinylated, synthetic); scale: log2
row,Variant,enrichment
1,chain 1 C13A,-10.8
2,chain 1 C13K,-9.32
3,chain 1 C13E,-10.1
4,chain 1 C13H,-8.85
5,chain 1 C13G,-10.6
6,chain 1 C13D,-9.35
7,chain 1 C13S,-9.93
8,chain 1 P10E,-8.1
9,chain 1 P10R,-9.28
10,chain 1 P10I,-8.64
11,chain 1 P10H,-8.15
12,chain 1 P10C,-9.92
13,chain 1 P10S,-9.39
14,chain 1 P10T,-8.06
15,chain 1 P10M,-8.7
16,chain 1 P10K,-7.16
17,chain 1 E1C,-9.95
18,chain 1 T16C,-7.88
19,chain 1 Y5K,-5.8
20,chain 1 D4C,-9.44
21,chain 1 D3C,-10.1
22,chain 1 Y14P,-9.05
23,chain 1 A9D,-8.43
24,chain 1 A7C,-10
25,chain 1 T6C,-11.3
26,chain 1 Y8E,-6.38
27,chain 1 Y8R,-8.38
28,chain 1 Y8K,-6.27

# Variants of: B5
# Conditions: with CCL1 (biotinylated, synthetic); scale: log2
row,Variant,enrichment
1,chain 1 D3C,-9.13
2,chain 1 D3R,-6.68
3,chain 1 D3K,-4.59
4,chain 1 Y5Q,-4.59
5,chain 1 Y5R,-6.28
6,chain 1 Y5M,-6.87
7,chain 1 Y5T,-6.9
8,chain 1 Y5P,-5.96
9,chain 1 Y5H,-6.55
10,chain 1 Y5G,-6.34
11,chain 1 Y5C,-8.4
12,chain 1 Y5A,-6.3
13,chain 1 Y5K,-4.83
14,chain 1 Y5D,-6.28
